The record followed here is publication PMC3355152, “Crystal Structures of Lsm3, Lsm4 and Lsm5/6/7 from Schizosaccharomyces pombe” (PLoS ONE, 2012).

Data set [1] concerns the molecule itself. The data set is described as follows: AUC; sedimentation velocity, 42000 r.p.m., 20°C, 20 mM Hepes pH 7.5, 100 mM NaCl; 0.75, 1.0 and 1.5 mg/ml; c(S) and c(M) distributions (SEDFIT).
Data set [2] concerns the molecule itself. The data set can be described thus: crystal structure; SeMet crystals grown from the SeMet-SpLsm2/3 sample; hanging drop, 15°C, 0.1 M Mes pH 6.5, 0.2 M MgCl2, 40% MPD; 2.7 Å, SAD; only SpLsm3 in the crystal.
Data set [3] concerns the molecule itself. The data set is described as follows: AUC; sedimentation equilibrium, 20°C, 20 mM Hepes pH 7.5, 500 mM NaCl; 15,000, 18,000, 25,000 rpm; 0.3-1.5 mg/ml; fitted to a monomer-trimer model (HETEROANALYSIS); monomer to trimer.

B1: SpLsm3 (Lsm3 from S. pombe, expressed alone) (natural protein)
chain: not shown
notes: Lsm3 (Sm-like protein 3), S. pombe, full length; modified pETDuet-1 MCS1 with N-terminal His6-tag followed by a PreScission site; printed monomer mass 11087 Da; source: E. coli B834 (DE3), purified (TALON Co2+, PreScission cleavage, second TALON, Superdex-200); not shown: His6, N-terminal, cleaved
Regarding B1, the stoichiometry N (commonly a count of units in the complex or per binding partner) in data set [1] was found to be 7.

B2: SpLsm5/6/7 sub-complex (trimeric complex of SpLsm5, SpLsm6 and SpLsm7) (complex)
chain 1: not shown
chain 2: MDSSPNEFLNKVIGKKVLIRLSSGVDYKGILSCLDGYMNLALERTEEYVNGKKTNVYGDAFIRGNNVLYVSALDD
chain 3: MSSLQKRPGPGNSSQPTERPRKESILDLSRYQDQRIQATFTGGRQITGILKGFDQLMNLVLDDVEEQLRNPEDGKLTGAIRKLGLVVVRGTTLVLIAPMDGSEEIPNPFVQAE
modifications: SeMet-substituted in the crystal | SeMet-substituted in the crystal | SeMet-substituted in the crystal
notes: Lsm5 (Sm-like protein 5), S. pombe, full length; Lsm6 (Sm-like protein 6), S. pombe, full length; Lsm7 (Sm-like protein 7), S. pombe, full length; One copy of each subunit (printed mass of this unit 31240 Da); two such trimers form the hexameric ring; source: E. coli B834 (DE3), co-expressed (pETDuet-1 and pACYCDuet-1), purified (TALON Co2+, Superdex-200); copies: 1 + 1 + 1
Turning to B2, in data set [1], the “stoichiometry N” value is 2.

B3: SpLsm3 from the co-expressed SpLsm2/3 sample (natural protein)
chain: not shown
modifications: SeMet-substituted in the crystal
notes: Lsm3 (Sm-like protein 3), S. pombe, full length; inserted into MCS2 of pETDuet-1, no tag told; The SpLsm3 crystals grew from the SeMet-SpLsm2/3 sample; Residues 1-8 and 56-69 are disordered in the model; also called SeMet-SpLsm3; source: E. coli B834 (DE3), co-expressed with His6-SpLsm2 (pETDuet-1 MCS2), purified (TALON Co2+, Superdex-200)
Take B3: the “stoichiometry N” value in data set [2] worked out at 7.

B4: ScLsm3 (Lsm3 from S. cerevisiae) (natural protein)
chain: METPLDLLKLNLDERVYIKLRGARTLVGTLQAFDSHCNIVLSDAVETIYQLNNEELSESERRCEMVFIRGDTVTLISTPSEDDDGAVEI
notes: Lsm3 (Sm-like protein 3), Saccharomyces cerevisiae; the Lsm3 gene amplified from genomic DNA; printed monomer mass 10450 Da; source: E. coli B834 (DE3), purified (TALON Co2+, PreScission cleavage, second TALON, Superdex-200); not shown: His6, N-terminal, cleaved
Regarding B4, the “stoichiometry N” value in data set [1] was 8.

B5: SpLsm4N (C-terminal truncated Lsm4 from S. pombe, residues 1-91) (domain or fragment, UniProt O14352 1-91, looked up)
chain: MLPLTLLNATQGRPILVELKNGETFNGHLENCDNYMNLTLREVIRTMPDGDKFFRLPECYIRGNNIKYLRIQDEVLSQVAKQQAQQRENRG
modifications: SeMet-substituted in the crystal
notes: Lsm4 (Sm-like protein 4), S. pombe, residues 1-91; printed monomer mass 12204 Da; No cleavage of the His6 tag is told for this construct; The model covers residues 12-71; also called N-terminal region of Lsm4; source: E. coli B834 (DE3), purified (TALON Co2+, Superdex-75)
With B5, the “stoichiometry N” value in data set [3] stood at 3.
